The record followed here is article PMC4698670.

Assay [1] deals with T1, recombinant human PRX1 (Sigma-Aldrich) (human) (UniProt Q06830).
T1 sequence: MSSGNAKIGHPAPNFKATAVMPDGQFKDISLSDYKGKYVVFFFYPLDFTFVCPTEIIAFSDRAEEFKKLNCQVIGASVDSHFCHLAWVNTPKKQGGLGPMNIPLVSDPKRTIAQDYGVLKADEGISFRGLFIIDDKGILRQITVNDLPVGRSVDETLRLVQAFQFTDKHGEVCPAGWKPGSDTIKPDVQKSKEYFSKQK

In assay [2] the target is T1, recombinant human PRX1 (Sigma-Aldrich) (human). This is another data set of the same source.

B1: recombinant fortilin_(ΔL7R) tagged with Strep-tag (natural protein)
chain: MIIYRDRISHDEMFSDIYKIREIADGLCLEVEGKMVSRTEGNIDDSLIGGNASAEGPEGEGTESTVITGVDIVMNHHLQETSFTKEAYKKYIKDYMKSIKGKLEEQRPERVKPFMTGAAEQIKHILANFKNYQFFIGENMNPDGMVALLDYREDGVTPYMIFFKDGLEMEKC
Consider B1, for which the decrease of PRX1 enzymatic activity (NADPH consumption rate) by Mst1 in the presence of fortilin (ΔL7R) (PRX1 alone: 75.3% decrease) in assay [1] came out at 77.9 % decrease. The PRX1 peroxidase activity in vitro (NADPH consumption rate, reaction mix normalized to 1.00; PRX1 alone 4.38) with fortilin (ΔL7R) added in assay [2] was 5.9 A.U.
